Article PMC12079668 (2025)
Residue numbers refer to the chain shown, from its start.

Assays:
Assay in all cases: ITC
[1] = molecular target: T1, full-length mouse Cavin1, His-MBP-tagged (mouse, UniProt O54724 1-392)
T1 chain: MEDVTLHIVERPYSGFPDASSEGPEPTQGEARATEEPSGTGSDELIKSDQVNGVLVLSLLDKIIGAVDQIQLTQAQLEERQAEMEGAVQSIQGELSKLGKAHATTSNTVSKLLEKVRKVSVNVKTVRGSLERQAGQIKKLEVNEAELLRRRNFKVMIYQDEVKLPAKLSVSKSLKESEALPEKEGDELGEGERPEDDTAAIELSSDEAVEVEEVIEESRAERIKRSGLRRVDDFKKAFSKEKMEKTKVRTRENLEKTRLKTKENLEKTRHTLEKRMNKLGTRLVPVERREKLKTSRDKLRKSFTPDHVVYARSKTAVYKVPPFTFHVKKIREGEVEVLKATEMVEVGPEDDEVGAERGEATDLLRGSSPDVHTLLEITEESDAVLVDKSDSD

[2] = molecular target: T2, mouse Cavin1 HR1 domain 5Q mutant (mouse, UniProt O54724 45-155, Lys115 to glutamine | Arg117 to glutamine | Lys118 to glutamine | Lys124 to …)
T2 sequence: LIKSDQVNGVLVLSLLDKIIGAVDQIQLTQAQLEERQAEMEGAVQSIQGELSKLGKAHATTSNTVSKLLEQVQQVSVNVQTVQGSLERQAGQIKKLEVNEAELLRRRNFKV

[3] = molecular target: T3, mouse Cavin1 HR1 domain (residues 45–155), His-Ub-tagged (mouse, UniProt O54724 45-155)
T3 chain: T2 sequence with Q71K, Q73R, Q74K, Q80K, Q83R

[4] = molecular target: T4, N-terminal fragment of mouse Cavin1 HR1 domain (residues 45–103) (mouse, UniProt O54724 45-103)
T4 chain: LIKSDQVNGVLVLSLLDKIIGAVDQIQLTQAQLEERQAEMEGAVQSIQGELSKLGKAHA

B1: nanobody NbA12 (VHH)
VHH: QVQLQESGGGLVQAGGSLRLSCAASGFTFDDYAIGWFRQAPGKEREGVSCITSSDGSTYYADSVKGRFTISSDNAKNTVYLQMNSLKPEDTAVYYCAAESWPPLCHYSGMDYWGKGTQVTVSS
Kd [1]: 8880 nM | Kd [2]: 143 nM | Kd [3]: 500 nM | Kd [4]: 555 nM

B2: nanobody NbB7 (VHH)
VHH: QVQLQESGGGLVQAGGSLRLSCAVSGIRVNVNAMYWYRQAPGKQRELVAIITTFGSTNYADSAKGRFTISRDNTKNTVYLQMDNLKPEDTAVYYCNAPQFTDRYWGQGTQVTVSS
Kd [1]: 1730 nM | Kd [4]: 451 nM
